We go through one substance from paper PMC7899689.

The target of assay [1] is human recombinant HER2 protein (extracellular domain Thr23-Thr652 of human ERBB2 with His tag) (human) (UniProt P04626). Nature of the assay: SEC. For orientation: In gel filtration, larger molecules generally elute earlier.
Assay [2] shares this target. Nature of the assay: SEC-MALS.

For the substance “trastuzumab stressed at 45°C for 10 days (45C10d) (antibody)”, the percent of antibody unbound (mixed 1:1) in assay [1] and in assay [2] was 40% each time.
